Non-standard residues stand in square brackets, D forms with d. No end group written: not given here. Arg(Me2a) = CN(C)C(=N)NCCC[C@H](N)C(=O)O; Lys(Me3) = C[N+](C)(C)CCCC[C@H](N)C(=O)O; Arg(Me2s) = CN=C(NC)NCCC[C@H](N)C(=O)O; pT = C[C@@H](OP(=O)(O)O)[C@H](N)C(=O)O; Me2a = asymmetric dimethyl (on Arg); Lys(Me2) = CN(C)CCCC[C@H](N)C(=O)O; Me2s = symmetric dimethyl (on Arg); pS = N[C@@H](COP(=O)(O)O)C(=O)O; Lys(Me) = CNCCCC[C@H](N)C(=O)O; Me3 = trimethyl (on Lys)
T1: Bdf1 bromodomain 2 (GST-tagged, WT) (Saccharomyces cerevisiae (strain ATCC …, UniProt P35817))
T1 chain: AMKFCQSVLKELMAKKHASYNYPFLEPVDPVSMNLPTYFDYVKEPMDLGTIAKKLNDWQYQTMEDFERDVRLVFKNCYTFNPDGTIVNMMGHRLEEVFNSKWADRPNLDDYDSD

T2: Bdf1 bromodomain 1 (GST-tagged, WT) (Saccharomyces cerevisiae (strain ATCC …, UniProt P35817))
T2 chain: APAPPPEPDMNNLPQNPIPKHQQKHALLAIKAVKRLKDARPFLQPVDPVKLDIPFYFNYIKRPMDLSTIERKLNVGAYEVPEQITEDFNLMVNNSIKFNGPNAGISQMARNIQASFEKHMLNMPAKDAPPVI


Assays:
[1] = target: T1, Bdf1 bromodomain 2 (GST-tagged, WT); assay: histone peptide array probed with recombinant GST-bromodomain, signal normalised to myc peptide control
[2] = target: T2, Bdf1 bromodomain 1 (GST-tagged, WT); assay: as above

| binding score [1] | binding score [2] | Binder |
| --- | --- | --- |
| 0 | 0 | PRKQLATKAA[Arg(Me2a)][Lys(Me)][pS]APATGG |
| 0 | 0 | ARTKQTARKSTGGKAPRKQ (A Rme2s T Kme2 Q T A R K S T G G K A P R K Q) |
| 0.00482 | 0 | ARTKQTARKSTGGKAPRKQ (A R T K Q T A R Kme1 S T G G K A P R K Q) |
| 0.000885 | 0.00789 | ARTKQTARKSTGGKAPRKQ (A Rme2a pT Kme3 Q T A R K S T G G K A P R K Q) |
| 0 | 0 | RKSAPATGGVKKPHRYRPG (R K S A P A T G G V Kme3 K P H R Y R P G) |
| 0.00659 | 0.0133 | ARTKQTARKSTGGKAPRKQ (A Rme2a T Kac Q T A Rme2a Kme3 S T G G K A P R K Q) |
| 0.33 | 0.146 | SGRGKGGKGLGKGGAKRHR (S G R G Kac G G Kac G L G K G G A K R H R) |
| 0.00679 | 0.0118 | ARTKQTA[Arg(Me2s)]K(Ac)S[pT]GGKAPRKQ |
| 0.448 | 0.484 | SGRGKGGKGLGKGGAKRHR (S G R G K G G Kac G L G Kac G G A Kac R H R) |
| 0.181 | 0 | PDPAK(Ac)SAPAPKK(Ac)G[pS]K(Ac)KAVT [H2B 1-19] |
| 0.0269 | 0.0109 | ARTKQTARKSTGGKAPRKQ (A Rme2s T Kme1 Q T A Rme2s Kac S T G G K A P R K Q) |
| 0 | 0.00341 | PRKQLATKAA[Arg(Me2a)][Lys(Me)]SAPATGG |
| 0 | 0.0061 | PRKQLATKAA[Arg(Me2s)]K(Ac)[pS]APATGG |
| 0 | 0.000538 | ARTKQTARKSTGGKAPRKQ (A Rme2s T Kme3 Q T A Rme2s Kme2 S T G G K A P R K Q) |
| 0 | 0.0199 | ART[Lys(Me)]QTA[Arg(Me2s)][Lys(Me)]STGGKAPRKQ |
| 0.0261 | 0.0181 | ARTKQTARKSTGGKAPRKQ (A Rme2a T Kme3 Q T A Rme2s Kac S T G G K A P R K Q) |
| 0 | 0.00502 | ARTKQTARKSTGGKAPRKQ (A Rme2s T Kme1 Q T A Rme2a Kme2 S T G G K A P R K Q) |
| 0 | 0.0111 | A[Arg(Me2s)]TKQTARKSTGGKAPRKQ |
| 0 | 0 | ARTKQTARKSTGGKAPRKQ (A Rme2a T Kme2 Q T A Rme2s Kme2 S T G G K A P R K Q) |

The remaining lines, values behind:

| Binder | binding score [1] | binding score [2] |
| --- | --- | --- |
| SGRGK(Ac)QGGK(Ac)ARAK(Ac)AKSRSS | 0.394 | 0.144 |
| ARTKQTARKSTGGKAPRKQ (A Rme2a T Kme1 Q T A Rme2s Kac S T G G K A P R K Q) | 0.0204 | 0.00717 |
| RKSAPATGGVKKPHRYRPG (R K S A P A T G G V Kac K P H R Y R P G) | 0.0292 | 0.0463 |
| AR(Me2a)TK(Me)QTAR(Me2s)K(Me)STGGKAPRKQ | 0.00187 | 0.0102 |
| ARTKQTA[Arg(Me2a)][Lys(Me3)][pS][pT]GGKAPRKQ | 0 | 0.00251 |
| SGRGKGGKGLGKGGAKRHR (pS G Rme2s G K G G K G L G K G G A K R H R) | 0 | 0 |
| A[Arg(Me2a)]TK(Ac)QTA[Arg(Me2a)][Lys(Me)]STGGKAPRKQ | 0 | 0.00897 |
| A[Arg(Me2s)]TK(Ac)QTARK(Me)STGGKAPRKQ | 0.00305 | 0.00341 |
| SGRGKGGKGLGKGGAKRHR (pS G Rme2s G Kac G G K G L G K G G A K R H R) | 0.107 | 0.00968 |
| ARTKQTARKSTGGKAPRKQ (A Rme2a T Kme2 Q T A Rme2s Kac S T G G K A P R K Q) | 0.0274 | 0.0213 |
| PRKQLATKAAR[Lys(Me2)][pS]APATGG | 0 | 0 |
| SGRGKGGKGLGKGGAKRHR (S G Rme2a G Kac G G Kac G L G K G G A K R H R) | 0.137 | 0.0418 |
| ARTKQTARKSTGGKAPRKQ (A Rme2a T Kac Q T A Rme2a K S T G G K A P R K Q) | 0.00718 | 0.00932 |
| ARTKQTARKSTGGKAPRKQ (A R T K Q T A Rme2s Kac pS T G G K A P R K Q) | 0.00403 | 0.00484 |
| ART[Lys(Me3)]QTA[Arg(Me2a)][Lys(Me)]STGGKAPRKQ | 0.00148 | 0 |
| PRKQLATKAA[Arg(Me2a)][Lys(Me2)][pS]APATGG | 0 | 0 |

| Binder | binding score [1] | binding score [2] |
| --- | --- | --- |
| A[Arg(Me2s)][pT][Lys(Me)]QTARKSTGGKAPRKQ | 0.00344 | 0.00323 |
| A[Arg(Me2s)]TK(Ac)QTA[Arg(Me2a)][Lys(Me2)]STGGKAPRKQ | 0.00698 | 0.00197 |
| ARTKQTARKSTGGKAPRKQ (A Rme2s T Kme2 Q T A Rme2s Kac S T G G K A P R K Q) | 0.0314 | 0.0179 |
| PRKQLATKAA[Arg(Me2s)][Lys(Me)][pS]APATGG | 0 | 0 |
| SGRGK(Ac)QGGKARAKAKSRSS | 0.0459 | 0 |
| ARTKQTARKSTGGKAPRKQ (A Rme2a T Kme2 Q T A Rme2a K S T G G K A P R K Q) | 0.00698 | 0.00323 |
| ARTKQTARKSTGGKAPRKQ (A Rme2a T Kme3 Q T A Rme2a Kac S T G G K A P R K Q) | 0 | 0.0145 |
| ARTKQTARKSTGGKAPRKQ (A R T K Q T A R K S pT G G K A P R K Q) | 0 | 0 |
| ARTK(Me3)QTAR(Me2s)K(Me)STGGKAPRKQ | 0 | 0 |
| PRKQLATKAAR[Lys(Me2)]SAPATGG | 0 | 0.01 |
| SGRGKGGKGLGKGGAKRHR (pS G Rme2a G K G G K G L G K G G A K R H R) | 0 | 0 |
| KKKKKRRRRRXKKKKRK (K Kme1 Kme2 Kme3 Kac R Rme2s R Rme2a R Cit K Kme1 Kac Kme3 R K) [background 01] | 0 | 0 |
| AR[pT][Lys(Me3)]QTARKSTGGKAPRKQ | 0.006 | 0.00305 |
| ARTKQTARKSTGGKAPRKQ (A Rme2s T Kme3 Q T A R Kme3 S T G G K A P R K Q) | 0 | 0.0117 |
| A[Arg(Me2a)]T[Lys(Me3)]QTA[Arg(Me2a)][Lys(Me3)]STGGKAPRKQ | 0.00384 | 0 |
